# Results taken from patent publication US20260265379A1.
# B1: bsAb035 (bispecific antibody, not shown: small tags and cut ends)
# heavy (part 1 of 2): QVQLVQSGAEVKKPGASVKLSCKASGYIFTRYYMYWVKQRPGQGLEWIGEINPNNGGTKFNEKFKNRATLTVDKSISTAYMELSRLRSDDTAVYYCSREDDYDGTPFAMDYWGQGTLVTVSS
# heavy (part 2 of 2): GGGGSGGGGSGGGGSGGGGSEVQLVESGGGLVQPGGSLRLSCAASGFTFSRYWMSWVRQAPGKGLEWVANIKQDGSEKYYVDSVKGRFTISRDNAKNSLYLQMNSLRAEDTAVYYCAREGGWFGELAFDYWGQGTLVTVSSGGGGSGGGGSGGGGSGGGGSEIVLTQSPGTLSLSPGERATLSCRASQRVSSSYLAWYQQKPGQAPRLLIYDASSRATGIPDRFSGSGSGTDFTLTISRLEPEDFAVYYCQQYGSLPWTFGQGTKVEIK
# heavy: B1 heavy (part 1 of 2)
# light: not shown
# B2: bsAb040 (bispecific antibody, not shown: small tags and cut ends)
# heavy (part 1 of 2): B1 heavy (part 1 of 2)
# heavy (part 2 of 2): GGGGSGGGGSGGGGSGGGGSEIVLTQSPGTLSLSPGERATLSCRASQRVSSSYLAWYQQKPGQAPRLLIYDASSRATGIPDRFSGSGSGTDFTLTISRLEPEDFAVYYCQQYGSLPWTFGQGTKVEIKGGGGSGGGGSGGGGSGGGGSEVQLVESGGGLVQPGGSLRLSCAASGFTFSRYWMSWVRQAPGKGLEWVANIKQDGSEKYYVDSVKGRFTISRDNAKNSLYLQMNSLRAEDTAVYYCAREGGWFGELAFDYWGQGTLVTVSS
# heavy: B1 heavy (part 1 of 2)
# light: not shown
# B3: bsAb051 (bispecific antibody, not shown: small tags and cut ends; a dimerising Fc or GST)
# heavy (part 1 of 2): B1 heavy (part 1 of 2)
# heavy (part 2 of 2): B1 heavy (part 2 of 2)
# heavy: B1 heavy (part 2 of 2)
# light: not shown
# B4: bsAb055 (bispecific antibody, not shown: a dimerising Fc or GST; small tags and cut ends)
# heavy 1: B1 heavy (part 2 of 2)
# heavy 2: B1 heavy (part 1 of 2)
# light: not shown
# B5: bsAb050 (bispecific antibody, not shown: small tags and cut ends)
# heavy 1: EVQLVESGGGLVQPGGSLRLSCAASGFTFSRYWMSWVRQAPGKGLEWVANIKQDGSEKYYVDSVKGRFTISRDNAKNSLYLQMNSLRAEDTAVYYCAREGGWFGELAFDYWGQGTLVTVSSGGGGSGGGGSGGGGSGGGGSEIVLTQSPGTLSLSPGERATLSCRASQRVSSSYLAWYQQKPGQAPRLLIYDASSRATGIPDRFSGSGSGTDFTLTISRLEPEDFAVYYCQQYGSLPWTFGQGTKVEIKGGGGSGGGGSGGGGSGGGGSQVQLVQSGAEVKKPGASVKLSCKASGYIFTRYYMYWVKQRPGQGLEWIGEINPNNGGTKFNEKFKNRATLTVDKSISTAYMELSRLRSDDTAVYYCSREDDYDGTPFAMDYWGQGTLVTVSS
# heavy 2: B1 heavy (part 1 of 2)
# light: not shown
# B6: bsAb048 (bispecific antibody, not shown: small tags and cut ends)
# heavy 1: EIVLTQSPGTLSLSPGERATLSCRASQRVSSSYLAWYQQKPGQAPRLLIYDASSRATGIPDRFSGSGSGTDFTLTISRLEPEDFAVYYCQQYGSLPWTFGQGTKVEIKGGGGSGGGGSGGGGSGGGGSEVQLVESGGGLVQPGGSLRLSCAASGFTFSRYWMSWVRQAPGKGLEWVANIKQDGSEKYYVDSVKGRFTISRDNAKNSLYLQMNSLRAEDTAVYYCAREGGWFGELAFDYWGQGTLVTVSSGGGGSGGGGSGGGGSGGGGSQVQLVQSGAEVKKPGASVKLSCKASGYIFTRYYMYWVKQRPGQGLEWIGEINPNNGGTKFNEKFKNRATLTVDKSISTAYMELSRLRSDDTAVYYCSREDDYDGTPFAMDYWGQGTLVTVSS
# heavy 2: B1 heavy (part 1 of 2)
# light: not shown
# B7: bsAb020 (bispecific antibody)
# heavy: DIQMTQSPSSLSASVGDRVTITCHASQNINVWLSWYQQKPGKAPKLLIYKASNLHTGVPSRFTGSGSGTDFTFTISSLQPEDIATYYCQQGQTYPYTFGQGTKLEIKGGGGSGGGGSGGGGSGGGGSQVQLVQSGAEVKKPGASVKLSCKASGYIFTRYYMYWVKQRPGQGLEWIGEINPNNGGTKFNEKFKNRATLTVDKSISTAYMELSRLRSDDTAVYYCSREDDYDGTPFAMDYWGQGTLVTVSSGGGGSGGGGSGGGGSGGGGSEVQLVESGGGLVQPGGSLRLSCAASGFTFSRYWMSWVRQAPGKGLEWVANIKQDGSEKYYVDSVKGRFTISRDNAKNSLYLQMNSLRAEDTAVYYCAREGGWFGELAFDYWGQGTLVTVSSASTKGPSVFPLAPSSKSTSGGTAALGCLVKDYFPEPVTVSWNSGALTSGVHTFPAVLQSSGLYSLSSVVTVPSSSLGTQTYICNVNHKPSNTKVDKRVEPKSCDKTHTCPPCPAPEFEGGPSVFLFPPKPKDTLMISRTPEVTCVVVDVSHEDPEVKFNWYVDGVEVHNAKTKPREEQYNSTYRVVSVLTVLHQDWLNGKEYKCKVSNKALPASIEKTISKAKGQPREPQVYTLPPSREEMTKNQVSLTCLVKGFYPSDIAVEWESNGQPENNYKTTPPVLDSDGSFFLYSKLTVDKSRWQQGNVFSCSVMHEALHNHYTQKSLSLSPG
# light: EIVLTQSPGTLSLSPGERATLSCRASQRVSSSYLAWYQQKPGQAPRLLIYDASSRATGIPDRFSGSGSGTDFTLTISRLEPEDFAVYYCQQYGSLPWTFGQGTKVEIKRTVAAPSVFIFPPSDEQLKSGTASVVCLLNNFYPREAKVQWKVDNALQSGNSQESVTEQDSKDSTYSLSSTLTLSKADYEKHKVYACEVTHQGLSSPVTKSFNRGEC
# B8: bsAb024 (bispecific antibody)
# heavy: QVQLVQSGAEVKKPGASVKLSCKASGYIFTRYYMYWVKQRPGQGLEWIGEINPNNGGTKFNEKFKNRATLTVDKSISTAYMELSRLRSDDTAVYYCSREDDYDGTPFAMDYWGQGTLVTVSSGGGGSGGGGSGGGGSGGGGSDIQMTQSPSSLSASVGDRVTITCHASQNINVWLSWYQQKPGKAPKLLIYKASNLHTGVPSRFTGSGSGTDFTFTISSLQPEDIATYYCQQGQTYPYTFGQGTKLEIKGGGGSGGGGSGGGGSGGGGSEVQLVESGGGLVQPGGSLRLSCAASGFTFSRYWMSWVRQAPGKGLEWVANIKQDGSEKYYVDSVKGRFTISRDNAKNSLYLQMNSLRAEDTAVYYCAREGGWFGELAFDYWGQGTLVTVSSASTKGPSVFPLAPSSKSTSGGTAALGCLVKDYFPEPVTVSWNSGALTSGVHTFPAVLQSSGLYSLSSVVTVPSSSLGTQTYICNVNHKPSNTKVDKRVEPKSCDKTHTCPPCPAPEFEGGPSVFLFPPKPKDTLMISRTPEVTCVVVDVSHEDPEVKFNWYVDGVEVHNAKTKPREEQYNSTYRVVSVLTVLHQDWLNGKEYKCKVSNKALPASIEKTISKAKGQPREPQVYTLPPSREEMTKNQVSLTCLVKGFYPSDIAVEWESNGQPENNYKTTPPVLDSDGSFFLYSKLTVDKSRWQQGNVFSCSVMHEALHNHYTQKSLSLSPG
# light: B7 light
# B9: bsAb005 (bispecific antibody)
# heavy: QVQLVQSGAEVKKPGASVKLSCKASGYIFTRYYMYWVKQRPGQGLEWIGEINPNNGGTKFNEKFKNRATLTVDKSISTAYMELSRLRSDDTAVYYCSREDDYDGTPFAMDYWGQGTLVTVSSASTKGPSVFPLAPSSKSTSGGTAALGCLVKDYFPEPVTVSWNSGALTSGVHTFPAVLQSSGLYSLSSVVTVPSSSLGTQTYICNVNHKPSNTKVDKRVEPKSCDKTHTCPPCPAPEFEGGPSVFLFPPKPKDTLMISRTPEVTCVVVDVSHEDPEVKFNWYVDGVEVHNAKTKPREEQYNSTYRVVSVLTVLHQDWLNGKEYKCKVSNKALPASIEKTISKAKGQPREPQVYTLPPSREEMTKNQVSLTCLVKGFYPSDIAVEWESNGQPENNYKTTPPVLDSDGSFFLYSKLTVDKSRWQQGNVFSCSVMHEALHNHYTQKSLSLSPGGGGGSGGGGSGGGGSGGGGSEIVLTQSPATLSLSPGERATLSCRASKGVSTSGYSYLHWYQQKPGQAPRLLIYLASYLESGVPARFSGSGSGTDFTLTISSLEPEDFAVYYCQHSRDLPLTFGGGTKVEIKGGGGSGGGGSGGGGSGGGGSQVQLVQSGVEVKKPGASVKVSCKASGYTFTNYYMYWVRQAPGQGLEWMGGINPSNGGTNFNEKFKNRVTLTTDSSTTTAYMELKSLQFDDTAVYYCARRDYRFDMGFDYWGQGTTVTVSS
# light: not shown
# B10: bsAb001 (bispecific antibody, human IgG1, kappa)
# heavy: QVQLVQSGAEVKKPGASVKLSCKASGYIFTRYYMYWVKQRPGQGLEWIGEINPNNGGTKFNEKFKNRATLTVDKSISTAYMELSRLRSDDTAVYYCSREDDYDGTPFAMDYWGQGTLVTVSSASTKGPSVFPLAPSSKSTSGGTAALGCLVKDYFPEPVTVSWNSGALTSGVHTFPAVLQSSGLYSLSSVVTVPSSSLGTQTYICNVNHKPSNTKVDKRVEPKSCDKTHTCPPCPAPEFEGGPSVFLFPPKPKDTLMISRTPEVTCVVVDVSHEDPEVKFNWYVDGVEVHNAKTKPREEQYNSTYRVVSVLTVLHQDWLNGKEYKCKVSNKALPASIEKTISKAKGQPREPQVYTLPPSREEMTKNQVSLTCLVKGFYPSDIAVEWESNGQPENNYKTTPPVLDSDGSFFLYSKLTVDKSRWQQGNVFSCSVMHEALHNHYTQKSLSLSPGGGGGSGGGGSGGGGSGGGGSQVQLVQSGVEVKKPGASVKVSCKASGYTFTNYYMYWVRQAPGQGLEWMGGINPSNGGTNFNEKFKNRVTLTTDSSTTTAYMELKSLQFDDTAVYYCARRDYRFDMGFDYWGQGTTVTVSSGGGGSGGGGSGGGGSGGGGSEIVLTQSPATLSLSPGERATLSCRASKGVSTSGYSYLHWYQQKPGQAPRLLIYLASYLESGVPARFSGSGSGTDFTLTISSLEPEDFAVYYCQHSRDLPLTFGGGTKVEIK
# light: not shown
# Target: BTN3A expressed at the cell surface (human), O00481
# Test: cell-based or functional assay
# Sequence of BTN3A expressed at the cell surface (human), O00481 (O00481 30-513): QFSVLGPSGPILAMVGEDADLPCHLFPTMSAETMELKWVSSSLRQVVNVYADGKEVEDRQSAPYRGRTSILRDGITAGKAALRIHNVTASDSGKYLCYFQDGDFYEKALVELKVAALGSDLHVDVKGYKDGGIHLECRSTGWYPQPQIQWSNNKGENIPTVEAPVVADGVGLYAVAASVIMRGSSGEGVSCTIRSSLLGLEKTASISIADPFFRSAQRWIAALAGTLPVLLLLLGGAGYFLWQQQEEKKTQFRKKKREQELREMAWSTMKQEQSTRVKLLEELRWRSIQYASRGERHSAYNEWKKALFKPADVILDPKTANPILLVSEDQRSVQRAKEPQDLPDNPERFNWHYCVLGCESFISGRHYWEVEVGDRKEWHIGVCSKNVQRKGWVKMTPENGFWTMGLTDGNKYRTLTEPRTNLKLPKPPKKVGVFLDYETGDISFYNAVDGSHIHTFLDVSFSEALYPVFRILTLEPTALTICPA
Binder,Jurkat-Vy9Vo2 TCR MOP activation at 0.5 nM (fold-change to medium),Jurkat-Vy9Vo2 TCR MOP activation at 5 nM (fold-change to medium)
B1,14.1,11.2
B2,10.4,8.8
B3,1.5,2.3
B4,2.9,11.8
B5,10.1,9.3
B6,8.2,7.9
B7,1.1,1
B8,1,1
B9,6,4.2
B10,6.5,4.5
